Broadly, the Kd is a measure of binding affinity in units of concentration.

The test has as its target Full-length NOD2 (purified recombinant, tags removed) (UniProt Q9HC29 1-1040). As to the kind of experiment: SPR. On the technique in general: In SPR one partner is held on a chip, and binding of the other changes the refractive index at the surface.

Chain of Full-length NOD2 (purified recombinant, tags removed) (Q9HC29 whole entry): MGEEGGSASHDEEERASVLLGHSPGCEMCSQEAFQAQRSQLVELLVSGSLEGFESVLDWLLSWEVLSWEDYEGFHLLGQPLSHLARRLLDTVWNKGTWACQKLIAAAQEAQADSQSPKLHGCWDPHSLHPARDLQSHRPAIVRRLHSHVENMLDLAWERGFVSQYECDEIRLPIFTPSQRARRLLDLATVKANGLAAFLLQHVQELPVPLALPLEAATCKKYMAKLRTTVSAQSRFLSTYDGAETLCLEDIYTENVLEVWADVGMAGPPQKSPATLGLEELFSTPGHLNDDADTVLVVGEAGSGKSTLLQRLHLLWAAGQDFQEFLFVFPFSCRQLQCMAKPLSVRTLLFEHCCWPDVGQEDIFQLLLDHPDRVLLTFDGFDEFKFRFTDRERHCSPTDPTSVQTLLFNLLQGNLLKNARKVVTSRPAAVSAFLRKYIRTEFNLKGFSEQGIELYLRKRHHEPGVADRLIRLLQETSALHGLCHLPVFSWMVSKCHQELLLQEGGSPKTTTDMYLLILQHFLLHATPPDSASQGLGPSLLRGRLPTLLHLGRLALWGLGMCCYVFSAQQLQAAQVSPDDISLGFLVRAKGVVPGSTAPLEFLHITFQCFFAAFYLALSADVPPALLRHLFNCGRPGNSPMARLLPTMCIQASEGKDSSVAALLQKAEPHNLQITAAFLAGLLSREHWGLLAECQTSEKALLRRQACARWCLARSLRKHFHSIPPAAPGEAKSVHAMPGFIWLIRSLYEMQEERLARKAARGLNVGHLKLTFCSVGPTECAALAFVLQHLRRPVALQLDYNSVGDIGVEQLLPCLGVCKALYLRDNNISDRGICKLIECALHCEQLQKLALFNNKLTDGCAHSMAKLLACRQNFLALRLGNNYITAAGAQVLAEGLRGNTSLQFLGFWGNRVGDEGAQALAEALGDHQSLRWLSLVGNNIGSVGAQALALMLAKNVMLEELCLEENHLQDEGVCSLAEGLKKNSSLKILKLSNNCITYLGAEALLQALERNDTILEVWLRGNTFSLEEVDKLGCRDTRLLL

B1: NOD2 CARDs (residues Met28-Arg227) (domain or fragment)
chain: MCSQEAFQAQRSQLVELLVSGSLEGFESVLDWLLSWEVLSWEDYEGFHLLGQPLSHLARRLLDTVWNKGTWACQKLIAAAQEAQADSQSPKLHGCWDPHSLHPARDLQSHRPAIVRRLHSHVENMLDLAWERGFVSQYECDEIRLPIFTPSQRARRLLDLATVKANGLAAFLLQHVQELPVPLALPLEAATCKKYMAKLR
As to B1, the Kd was 12.4 ± 0.58 µM.

These data come from article PMC3391102 (The Journal of Biological Chemistry, 2012).
